B1: ABII051 (VHH)
VHH: EVQLLESGGGLVQPGGSLRLSCAASGRTFNNYNMGWFRQAPGKGREFVAAVSRSGVSTYYADSVKGRFTISRDNAKNAVYLQMNSLRPEDTAIYYCGAAYRGTAINVRRSYDSWGQGTLVTVSS
notes: humanized variant of ABII050
B2: ABII058 (VHH)
VHH: B1 VHH with A75S, A78T, V79L, I93V, G97A
notes: humanized variant of ABII050
B3: ABII053 (VHH)
VHH: B1 VHH with A78T
notes: humanized variant of ABII050
B4: ABII056 (VHH)
VHH: B1 VHH with G97A
notes: humanized variant of ABII050
B5: ABII055 (VHH)
VHH: B1 VHH with I93V
notes: humanized variant of ABII050
B6: ABII057 (VHH)
VHH: B1 VHH with A75S, A78T, I93V, G97A
notes: humanized variant of ABII050
B7: ABII052 (VHH)
VHH: B1 VHH with A75S
notes: humanized variant of ABII050
B8: ABII054 (VHH)
VHH: B1 VHH with V79L
notes: humanized variant of ABII050
B9: ABII061 (VHH)
VHH: B1 VHH with A75S, A78T, I93V, D112S
notes: humanized variant of ABII050
B10: ABII060 (VHH)
VHH: B1 VHH with A75S, A78T, V79L, I93V, G97A, D112S
notes: humanized variant of ABII050
B11: ABII003 (VHH)
VHH: EVQLLESGGGLVLPGGSLRLSCVHSGPTFRTDTMGWFRQAPGKGREFVAAVTWNSGRINYADSVKGRFTVSRDNTRNAAYLQMSGLKDEDTAVYYCTAHRFVVGGNRVEDWRYWGQGTLVTVSS
notes: humanized variant of ABII002
B12: ABII037 (VHH)
VHH: B11 VHH with L13Q, V70I, T75S, R76K, A78T, S84N, G85S, K87R, D88A, T97A
notes: humanized variant of ABII002
B13: ABII006 (VHH)
VHH: B11 VHH with H24A
notes: humanized variant of ABII002
B14: ABII007 (VHH)
VHH: B11 VHH with V70I
notes: humanized variant of ABII002
B15: ABII008 (VHH)
VHH: B11 VHH with T75S
notes: humanized variant of ABII002
B16: ABII005 (VHH)
VHH: B11 VHH with V23A
notes: humanized variant of ABII002
B17: ABII004 (VHH)
VHH: B11 VHH with L13Q
notes: humanized variant of ABII002

Changes are numbered by the printed parent chain.

Broadly, the IC50 is the point on the concentration scale where inhibition reaches its midpoint.

One assay addresses T1, human A-beta(1-40) peptide, monomeric (BAM) (human, biotin at the C-terminus in capture ELISA, SPR and TR-FRET; not biotinylated where coated directly (Example 7)).
T1 construct: synthetic peptide (Anaspec), TFA/HFIP treated to give monomer; also called monomeric A-beta
Description: TR-FRET competition; labelled competitor not given. In general terms: In TR-FRET formats the signal depends on donor and acceptor labels being close together.
Turning to B1, the IC50 worked out at 18 nM. Still for that read-out and setting: then B2, with 73 nM. B3 returned an IC50 of 20 nM. Consider B4, for which the IC50 was determined as 29 nM. Regarding B5, the IC50 came to 22 nM.

In turn, B6 yielded an IC50 of 46 nM. Turning to B7, the IC50 amounted to 19 nM. In turn, B8 displayed an IC50 of 51 nM. The molecule B9 gave an IC50 of 2.4 nM.

Regarding B10, the IC50 amounted to 50 nM. B11: the IC50 worked out at 2.1 nM.

B12: the IC50 was found to be 3.1 nM.

B13 had an IC50 of 80 nM. The same measure, in the same setting: then B14, with 1.6 nM; and B15, with 1.9 nM. Regarding B16, the IC50 worked out at 3.3 nM. With B17, the IC50 worked out at 2.1 nM.

A further assay concerns the target T1, human A-beta(1-40) peptide, monomeric …. The assay can be described thus: TR-FRET competition, mean IC50.
Molecule B1 registered an IC50 of 18 nM. For the molecule B2, the IC50 came out at 73 nM. B3 showed an IC50 of 20 nM.

In the case of B4, the IC50 amounted to 29 nM.

B5 displayed an IC50 of 22 nM. Regarding B6, the IC50 is 46 nM. As for B7, the IC50 turned out to be 19 nM. Consider B8, for which the IC50 was determined as 51 nM. Same read-out and setting: the same measure for B10: 50 nM; for B11: 2.1 nM. B13: the IC50 was found to be 80 nM. B14 came in with an IC50 of 1.6 nM. The same measure, in the same setting: then B15, with 1.9 nM; and B16, with 3.3 nM; and B17, with 2.1 nM.
